1 substance from patent publication US20160146827A1 can be followed below.

The assay has as its target GST-tagged PAK1-PBD protein (Cytoskeleton Inc.), Rac/Cdc42 (p21) binding domain of human p21 activated kinase 1, residues 67-150 (human) (UniProt Q13153). Briefly: fluorescence anisotropy in solution. (In general: Polarisation of emitted light reports the rotation of a fluorescent probe.)

Chain of GST-tagged PAK1-PBD protein (Cytoskeleton Inc.), Rac/Cdc42 (p21) binding domain of human p21 activated kinase 1, residues 67-150 (human) (Q13153 67-150 limits assumed): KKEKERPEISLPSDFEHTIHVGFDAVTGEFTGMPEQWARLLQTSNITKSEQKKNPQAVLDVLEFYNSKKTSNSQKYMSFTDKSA

As to “LUMP-Cdc42, fusion protein of LUMP with the constitutively active GTPase Cdc42 (Q61L) connected by a ten amino acid flexible linker (…) (from UniProt Q06877 1-186; P60953 1-191)”, the anisotropy (before addition) came to 0.19, the anisotropy (bound) is 0.22 and the increase in anisotropy on binding was 14%.
